Assay results reported in US20100196345A1.

Molecular target: Mannose/N-acetylglucosamine (Man/GlcNAc) receptor on thioglycolate-elicited mouse peritoneal macrophages (mouse) (UniProt Q61830)
Test: cell-based or functional assay

Chain of Mannose/N-acetylglucosamine (Man/GlcNAc) receptor on thioglycolate-elicited mouse peritoneal macrophages (mouse) (Q61830 20-1456): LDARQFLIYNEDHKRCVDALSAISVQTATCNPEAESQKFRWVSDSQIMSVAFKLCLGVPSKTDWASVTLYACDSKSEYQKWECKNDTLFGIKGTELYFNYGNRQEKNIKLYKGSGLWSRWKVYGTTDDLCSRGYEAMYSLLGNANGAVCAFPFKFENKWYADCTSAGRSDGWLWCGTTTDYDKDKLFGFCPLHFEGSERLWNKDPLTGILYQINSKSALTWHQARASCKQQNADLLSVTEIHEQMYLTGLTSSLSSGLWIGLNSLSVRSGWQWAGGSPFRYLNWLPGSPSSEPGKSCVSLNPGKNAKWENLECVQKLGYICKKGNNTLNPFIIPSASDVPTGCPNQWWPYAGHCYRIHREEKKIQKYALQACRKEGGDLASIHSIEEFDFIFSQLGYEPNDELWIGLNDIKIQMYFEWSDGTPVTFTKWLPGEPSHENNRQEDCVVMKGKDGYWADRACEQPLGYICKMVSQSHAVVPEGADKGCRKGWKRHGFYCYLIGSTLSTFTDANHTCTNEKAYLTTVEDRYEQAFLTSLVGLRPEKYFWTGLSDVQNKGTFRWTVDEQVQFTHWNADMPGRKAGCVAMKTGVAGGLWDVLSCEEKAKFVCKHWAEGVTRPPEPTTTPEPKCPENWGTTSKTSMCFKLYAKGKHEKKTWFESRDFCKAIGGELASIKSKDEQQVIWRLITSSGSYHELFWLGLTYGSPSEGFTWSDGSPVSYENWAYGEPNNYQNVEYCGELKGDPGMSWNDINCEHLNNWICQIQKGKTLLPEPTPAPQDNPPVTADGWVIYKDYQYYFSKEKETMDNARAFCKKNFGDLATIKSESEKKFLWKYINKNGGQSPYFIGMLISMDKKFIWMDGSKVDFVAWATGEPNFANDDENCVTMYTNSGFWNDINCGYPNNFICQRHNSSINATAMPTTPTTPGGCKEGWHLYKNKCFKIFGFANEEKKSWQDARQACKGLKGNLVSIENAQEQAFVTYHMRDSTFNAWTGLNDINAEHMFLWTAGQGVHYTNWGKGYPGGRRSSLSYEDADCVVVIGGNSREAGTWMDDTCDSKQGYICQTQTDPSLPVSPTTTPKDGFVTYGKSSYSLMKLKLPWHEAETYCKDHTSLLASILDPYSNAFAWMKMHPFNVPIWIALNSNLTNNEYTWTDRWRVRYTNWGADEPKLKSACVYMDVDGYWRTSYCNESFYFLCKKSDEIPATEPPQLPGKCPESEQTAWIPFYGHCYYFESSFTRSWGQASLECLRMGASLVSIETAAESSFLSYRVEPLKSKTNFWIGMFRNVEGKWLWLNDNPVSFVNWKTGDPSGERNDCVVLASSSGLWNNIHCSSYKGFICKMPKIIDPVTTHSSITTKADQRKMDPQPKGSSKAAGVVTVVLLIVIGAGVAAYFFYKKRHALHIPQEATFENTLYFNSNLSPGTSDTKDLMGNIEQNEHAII

percent of specific activity from total activity, inhibited by 4 mg/ml mannan: 65%
Substance: Cerezyme (commercial recombinant human GCD produced in mammalian CHO cells) (from UniProt P04062 40-536) (enzyme)
